Data on one molecule can be found in patent publication US20250388643A1, “GLUCAGON-LIKE PEPTIDE-2 COMPOSITIONS AND METHODS OF MAKING AND USING SAME” (Amunix Pharmaceuticals, Inc., priority 2011, published 2025).

Data set [1] relates to DSS-induced intestinal colitis in C57Bl/6 mice. Kind of data set: Murine acute DSS-induced colitis model. It counts as in vivo, mouse. The method, then: To determine the efficacy of GLP2-XTEN, the GLP2-2G-XTEN-AE864 fusion protein was evaluated in a mouse model of intestinal inflammatory colitis. […] A naïve, non-treated control group (group 1) was given normal drinking water for the duration of the experiment. […] Tissues were fixed in formalin and then transferred to ethanol for staining and histopathology. The anatomical data was analyzed with an ANOVA model with a Tukey/Kramer post-hoc test for pairwise comparisons, with significance at p=0.05.

For data set [2], the system named is indomethacin-induced intestinal inflammation in Wistar rats. It counts as in vivo, rat. The method, then: Study 2: Intestinal inflammation was induced in eighty male Wistar rats (Harlan Sprague Dawley) using indomethacin administered on Days 0 and 1 of the experiment. The rats were divided into eight treatment groups for treatment according to Table 20. All treatments were administered per the schedule starting on Day-3 of the experiment. Body weights were determined daily. On Day 2 (24 hours post-2nd indomethacin dose), the animals were prepped for sacrifice and analysis. Thirty minutes prior to sacrifice, the rats were injected intravenously with 1 ml 1% Evans Blue dye, in order to visualize ulcers and extent of inflammation by histopathology analysis. The rats were anesthetized and blood samples were removed to determine the concentration of GLP-2-2G-XTEN using the anti-XTEN/anti-GLP2 ELISA method. The rats were euthanized then necropsied and scored by gross examination of the intestines for the presence of adhesions; i.e., none=0, mild=1, moderate=2, or severe=3. The small intestines were removed and the length of each was recorded. In each small intestine, a longitudinal incision was made and the interior was examined. The degree and length of the ulcerated area was recorded as a score; i.e., none=0, few=1, multiple=2, or continuous=3. The fecal material was washed away with saline and blotted to remove excess fluid and each small intestine was weighed then processed for histopathology examination to quantitate the degree of inflammation; i.e., 0.0%=0, 1-33%=1, 34-66%=2, 67-100%=3.

Where two headings read alike, the source gives them in different places.

B1: GLP2-2G-XTEN_AE864: fusion protein of GLP-2 with glycine at position 2 linked at the C-terminus to XTEN AE864; sequence of FIG. 28 (SEQ ID NO: 798) (protein)
chain: HGDGSFSDEMNTILDNLAARDFINWLIQTKITDGGSPAGSPTSTEEGTSESATPESGPGTSTEPSEGSAPGSPAGSPTSTEEGTSTEPSEGSAPGTSTEPSEGSAPGTSESATPESGPGSEPATSGSETPGSEPATSGSETPGSPAGSPTSTEEGTSESATPESGPGTSTEPSEGSAPGTSTEPSEGSAPGSPAGSPTSTEEGTSTEPSEGSAPGTSTEPSEGSAPGTSESATPESGPGTSTEPSEGSAPGTSESATPESGPGSEPATSGSETPGTSTEPSEGSAPGTSTEPSEGSAPGTSESATPESGPGTSESATPESGPGSPAGSPTSTEEGTSESATPESGPGSEPATSGSETPGTSESATPESGPGTSTEPSEGSAPGTSTEPSEGSAPGTSTEPSEGSAPGTSTEPSEGSAPGTSTEPSEGSAPGTSTEPSEGSAPGSPAGSPTSTEEGTSTEPSEGSAPGTSESATPESGPGSEPATSGSETPGTSESATPESGPGSEPATSGSETPGTSESATPESGPGTSTEPSEGSAPGTSESATPESGPGSPAGSPTSTEEGSPAGSPTSTEEGSPAGSPTSTEEGTSESATPESGPGTSTEPSEGSAPGTSESATPESGPGSEPATSGSETPGTSESATPESGPGSEPATSGSETPGTSESATPESGPGTSTEPSEGSAPGSPAGSPTSTEEGTSESATPESGPGSEPATSGSETPGTSESATPESGPGSPAGSPTSTEEGSPAGSPTSTEEGTSTEPSEGSAPGTSESATPESGPGTSESATPESGPGTSESATPESGPGSEPATSGSETPGSEPATSGSETPGSPAGSPTSTEEGTSTEPSEGSAPGTSTEPSEGSAPGSEPATSGSETPGTSESATPESGPGTSTEPSEGSAPG
Turning to B1, the “histopathology of small intestine” value in data set [1] (DSS-treated mice, 6 mg/kg qd) is “normal mucosal architecture with elongated villi densely populated with columnar epithelial and goblet cells”. In data set [1] (DSS-treated mice, SC days 1-10, peptide BID, fusion protein QD, any dose), the “loss of body weight” value is “neither the mice treated with GLP2-2G peptide nor any of the groups of mice treated with any dose of GLP2-2G-XTEN mice showed a reduced loss of body weight”. For the same molecule, in data set [1] (conclusion of the experiment), the “protection of the intestines from inflammatory effects of DSS” value is “protected the intestines from the inflammatory effects of DSS, with maintenance of normal villi and mucosal architecture”. In addition, the small intestine weight result is “increase in small intestine weight” in data set [1] (high dose group (6 mg/kg), compared to control groups 1 and 2, day 10); “increase in small intestine weight” in data set [1] (medium dose group (2 mg/kg), compared to group 1, day 10). Besides, the “protection of the intestines from inflammatory effects of indomethacin” value in data set [2] (conclusion of the experiment) is recorded as “provided significant protection to the intestines from the inflammatory effects of indomethacin”. For the same molecule, in data set [2] (daily bid peptide, once-daily fusion protein), the “histopathology: protective effects” value is given as “most pronounced in the ileum, but were also seen in the jejunum”. Besides, the results for the efficacy by regimen result in data set [2] (daily dosing at 2 mg/kg) and in data set [2] (single doses of 6 mg/kg or 2 mg/kg) were “greatest efficacy” and “significant efficacy in some parameters”, respectively. The adhesions score result in data set [2] (once-daily fusion protein, daily bid peptide, FIG. 22B) is reported as “nearly complete protection from adhesions”; in data set [2] (single high-dose 6 mg/kg) it was “reached statistically significant difference”. Besides, in data set [2] (once-daily fusion protein, daily bid peptide, vs indomethacin-treated vehicle control), the small intestine length result is “reached statistically significant difference”. The total disease score entry was “significantly improved scores” in data set [2] (peptide delivered bid, fusion protein delivered qd, vs indomethacin-treated vehicle control) and “significantly improved scores” in data set [2] (single doses at 6 or 2 mg/kg, vs indomethacin-treated vehicle control). Also, in data set [2] (rat, in vivo), the “fusion protein in blood samples (anti-XTEN/anti-GLP2 ELISA)” value is “detectable at Day 2 in all animals of Group 4 and Group 8, and three rats in Group 7”.
